Measured values published in patent publication US20250382371A1 (NATIONAL INSTITUTES OF BIOMEDICAL INNOVATION HEALTH AND …, published 2025).
Changes are numbered by the printed parent chain. Numbers in names are those of the source. Blank lines part the entries; values can stand above or below the binder they belong to.

Experiments:
[1] = biological target: T1, cynomolgus monkey FCRL1 (XP_015310712), transiently expressed on 293T cells (cynomolgus monkey); test: flow cytometry on 293T cells transiently expressing cynomolgus monkey FCRL1; apparent KD from EC50 of a 4-parameter fit
T1 chain: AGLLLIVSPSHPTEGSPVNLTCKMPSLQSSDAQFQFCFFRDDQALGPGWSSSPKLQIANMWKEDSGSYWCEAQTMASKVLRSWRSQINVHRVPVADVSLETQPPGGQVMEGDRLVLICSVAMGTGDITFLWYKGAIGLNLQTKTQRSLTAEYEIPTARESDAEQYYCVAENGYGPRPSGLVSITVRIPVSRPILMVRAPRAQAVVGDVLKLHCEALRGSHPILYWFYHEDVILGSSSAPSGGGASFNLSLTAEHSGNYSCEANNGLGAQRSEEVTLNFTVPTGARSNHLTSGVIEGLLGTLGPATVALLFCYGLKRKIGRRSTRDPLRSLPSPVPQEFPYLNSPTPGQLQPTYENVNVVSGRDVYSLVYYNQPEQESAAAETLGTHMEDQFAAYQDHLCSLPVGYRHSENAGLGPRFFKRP
Procedure: (§1) An antigen-specific reactivity of the novel anti-human FCRL1 mouse antibody obtained in Example 4 was evaluated by Flow Cytometry (FCM). FCRL1 antigen-expressing cells were prepared by transiently expressing the recombinant FCRL1 antigen on 293T cells. A codon-optimized cDNA was synthesized based on the amino acid sequence of human FCRL1 (NCBI accession number: NP_443170.1) or cynomolgus monkey FCRL1 (XP_015310712), and a fragment in which the sequence of an internal ribosome entry site (IRES) derived from the encephalomyocarditis virus (EMCV) and the sequence of TagBFP were arranged in tandem was cloned into pcDNA 3.1hygro to construct an expression plasmid vector for human FCRL1 or cynomolgus monkey FCRL1. The purified expression vector was transfected into 293T cells, cells were collected 2 days after transfection, and binding with each antibody was confirmed by FCM.
(§2) As the secondary antibody, when the sample is a mouse antibody, R-Phycoerythrin (PE) F(ab′)₂ Fragment Goat Anti-Mouse IgG (H+L) (Jackson ImmunoResearch) was used, and when the sample is a human antibody or a human chimeric antibody, R-Phycoerythrin (PE) F(ab′)₂ Fragment Goat Anti-Human IgG, Fcγ Fragment Specific (Jackson ImmunoResearch) was used. A solution of each secondary antibody was prepared by diluting the stock solution 200 times with an FCM buffer. After washing once, cells in each well were suspended with 100 μL of FCM buffer, and binding to each antibody was confirmed by flow cytometry (FCM).
(§3) Cells that transiently expressed human FCRL1 or cynomolgus monkey FCRL1 were reacted with a 3-fold dilution series of each antibody starting from 100 nM (15 μg/ml) at 12 points. Data obtained by the FCM was analyzed, and a binding amount of each antibody bound to the cell was calculated as a fluorescence amount MFI derived from the PE-labeled secondary antibody. An antibody concentration and the measured MFI were plotted with respect to a logarithm of the antibody concentration, a saturated binding curve of each antibody was obtained, and regression was performed by a 4-parameter logistic model.

[2] = biological target: T2, human FCRL1 (NCBI accession number: NP_443170.1), transiently expressed on 293T cells (human, UniProt Q96LA6 17-429); test: flow cytometry on 293T cells transiently expressing human FCRL1; apparent KD from EC50 of a 4-parameter fit
T2 construct: also called Fc receptor-like protein 1; CD307a
T2 sequence: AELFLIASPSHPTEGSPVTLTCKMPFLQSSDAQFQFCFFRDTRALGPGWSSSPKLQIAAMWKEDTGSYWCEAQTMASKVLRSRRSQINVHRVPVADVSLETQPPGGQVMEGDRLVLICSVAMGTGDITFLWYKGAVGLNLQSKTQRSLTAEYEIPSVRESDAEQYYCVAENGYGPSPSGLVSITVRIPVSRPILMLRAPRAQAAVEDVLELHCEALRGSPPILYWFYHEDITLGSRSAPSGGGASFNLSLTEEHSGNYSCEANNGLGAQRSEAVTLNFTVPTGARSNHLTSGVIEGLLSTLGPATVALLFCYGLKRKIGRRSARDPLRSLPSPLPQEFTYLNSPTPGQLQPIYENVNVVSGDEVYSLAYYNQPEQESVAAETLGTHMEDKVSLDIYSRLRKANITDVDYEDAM
Procedure: as §1, §2, §3

[3] = biological target: T3, hFCRL1/FcRH1-His (manufactured by R&D Systems) (human, UniProt Q96LA6 17-307); test: SPR (Biacore 8K+), antibody captured by anti-human IgG, hFCRL1/FcRH1-His as analyte; Steady state affinity model
T3 construct: Bought His-tagged recombinant human FCRL1; The protein in the assay is soluble and is probably only the extracellular part; not shown: His tag
T3 sequence: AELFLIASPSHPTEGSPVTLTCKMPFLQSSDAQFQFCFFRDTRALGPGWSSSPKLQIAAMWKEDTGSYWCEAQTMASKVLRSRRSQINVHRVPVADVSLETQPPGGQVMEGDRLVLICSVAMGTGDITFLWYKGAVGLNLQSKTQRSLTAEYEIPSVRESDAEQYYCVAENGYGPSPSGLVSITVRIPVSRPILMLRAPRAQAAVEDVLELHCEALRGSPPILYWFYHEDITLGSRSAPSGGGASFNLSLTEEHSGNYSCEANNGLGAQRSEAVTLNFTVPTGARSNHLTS
Procedure: (§4) For the purpose of comparing the binding activity of the DK681 chimeric antibody (chDK681) and the DK1142 chimeric antibody (chDK1142) obtained by connecting […] of the DK681 and DK1142 mouse antibodies obtained in Example 4 to a human IgG1 (S239C) constant region with the binding activity of the anti-FCRL1 humanized antibody obtained in Example 10 to human FCRL1, the binding activity to hFCRL1/FcRH1-His (manufactured by R&D Systems) was measured by a surface plasmon resonance method (SPR method) using Biacore8K+ (manufactured by Cytiva).
(§5) The binding activity of the anti-FCRL1 antibody was measured as follows. An anti-human IgG antibody was immobilized on a CM5 sensor chip (manufactured by Cytiva) in accordance with the attached protocol using a Human Antibody Capture Kit (manufactured by Cytiva). An anti-FCRL1 antibody prepared at 5 μg/mL was added to a flow cell on which the Anti-human IgG antibody was immobilized at a flow rate of 10 μL/min for 30 seconds.
(§6) Next, hFCRL1/FcRH1-His, which is prepared stepwise to 5 concentrations by 3-fold dilution from 10000 ng/ml, was monitored at a flow rate of 30 μL/min for a binding reaction for 180 seconds and a dissociation reaction for 400 seconds. For the obtained sensorgram, a kinetic constant of each antibody was calculated by fitting by a Steady state affinity model or a 1:1 Binding model using Bia Evaluation Software (manufactured by Cytiva). The calculated binding rate constant (ka), dissociation rate constant (kd) and dissociation constant [KD] of each antibody are shown in Table 5. The chDK681 is referred to as DK681 F01, and the chDK1142 is referred to as DK1142 F02.

[4] = biological target: T1, cynomolgus monkey FCRL1 (XP_015310712), …; test: flow cytometry on 293T cells transiently expressing cynomolgus monkey FCRL1
Procedure: as §1, with “The purified expression vector was transfected into 293T cells, cells were collected 2 days after transfection, and binding with each antibody was confirmed by FCM.” left out
as §3

[5] = biological target: T3, hFCRL1/FcRH1-His (manufactured by R&D …); test: SPR (Biacore 8K+), antibody captured by anti-human IgG, hFCRL1/FcRH1-His as analyte; Steady state affinity model; kinetic rate constant of the same sensorgram
Procedure: as §4
(§7) The binding activity of the anti-FCRL1 antibody was measured as follows. An anti-human IgG antibody was immobilized on a CM5 sensor chip (manufactured by Cytiva) in accordance with the attached protocol using a Human Antibody Capture Kit (manufactured by Cytiva). […]
as §6, with “The chDK681 is referred to as DK681 F01, and the chDK1142 is referred to as DK1142 F02.” left out

[6] = biological target: T3, hFCRL1/FcRH1-His (manufactured by R&D …); test: SPR (Biacore 8K+), antibody captured by anti-human IgG, hFCRL1/FcRH1-His as analyte; Steady state affinity model; KD from Steady state affinity model, not from kd/ka
Procedure: as §4, §7
as §6, with “The chDK681 is referred to as DK681 F01, and the chDK1142 is referred to as DK1142 F02.” left out

[7] = biological target: T3, hFCRL1/FcRH1-His (manufactured by R&D …); test: SPR (Biacore 8K+), antibody captured by anti-human IgG, hFCRL1/FcRH1-His as analyte; 1:1 Binding model
Procedure: as §4, §5, §6

B3: DK681 humanized antibody DK681 F13, human IgG1 (S239C) (antibody)
heavy: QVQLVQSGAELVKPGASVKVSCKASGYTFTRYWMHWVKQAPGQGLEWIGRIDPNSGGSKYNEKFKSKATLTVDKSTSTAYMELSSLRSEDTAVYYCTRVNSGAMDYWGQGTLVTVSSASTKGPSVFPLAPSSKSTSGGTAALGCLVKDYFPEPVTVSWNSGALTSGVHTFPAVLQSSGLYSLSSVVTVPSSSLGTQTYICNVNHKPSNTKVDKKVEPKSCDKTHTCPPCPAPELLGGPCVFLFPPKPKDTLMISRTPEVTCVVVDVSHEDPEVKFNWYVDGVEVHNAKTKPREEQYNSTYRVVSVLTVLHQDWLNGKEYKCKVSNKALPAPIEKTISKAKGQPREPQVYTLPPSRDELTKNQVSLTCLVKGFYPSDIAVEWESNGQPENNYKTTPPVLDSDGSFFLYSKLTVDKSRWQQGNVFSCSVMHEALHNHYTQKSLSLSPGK
light: DIVMTQSPDSLAVSLGERATMNCKSSQSLLYSSNQKNYLAWYQQKPGQSPKLLIYWASTRESGVPDRFSGSGSGTDFTLTISSLQAEDVAIYYCQQYSNYPTFGQGTKVEIK
Kd [3]: 9.84 nM
koff [3]: 0.00297 s⁻¹
kon [3]: 387000 M⁻¹ s⁻¹

B4: anti-human FCRL1 mouse monoclonal antibody DK610 (antibody, V domains shown)
VH: DVLLQESGPGLVKPSQSLSLTCSVAGYSITSDYAWNWLRRFPGNRLEWMGYITYSGSTAYHPSLKGRISFTRDTSQNQVFLQLHSVTTEDSATYYCAQGGTLITTWFLRWGQGTLVTVSA
VL: DIVLTQSPASLAVSLGQRATISCRASKSVSTSDYNYMHWYRQKPGQPPKLFIYLASNLESGVPARFSGSGSGTDFTLNIHPVEEEDAATYYCQQSRELPSTFGGGTKLEIK
binding result [4]: no binding
Kd [2]: 0.4 nM

B5: anti-human FCRL1 mouse monoclonal antibody DK1164 (antibody, V domains shown)
VH: QVQLQQSGTELVRPGTSVKVSCKASGYAFTNYLIEWVKQRPGQGLEWIGVINPGSGGTDYNKKFKGKAMLTADKSSNTAYMQLSSLTSDDSAVYFCARSNSYAMDYWGQGTSVTVSS
VL: DIVMSQSPSSLAVSVGEKVTVSCKSSQSLLYSGNQKNNLAWYKQKPGQSPKLLIYWASTRESGVPDRFTGSGSGTDFTLTMSSVKAEDLAVYYCQQYYSYPWTFGGGTKLEIK
Kd [1]: 1.4 nM
Kd [2]: 2.3 nM

B7: anti-human FCRL1 mouse monoclonal antibody DK681 (antibody, V domains shown)
VH: QVQLQQPGAELVKPGTSVKLSCKASGYTFTRYWMHWVKQRPGQGLEWIGRIDPNSGGSKYNEKFKSKATLTVDKTSSSAYMQLNSLTSEDSAVYYCTRVNSGAMDYWGQGTSVTVSS
VL: DIVMSQSPSSLAVSVGEKVTMSCKSSQSLLYSSNQKNYLAWYQQKPGQSPKLLIYWASTRESGVPDRFTGSGSGTDFTLTISSVKAEDLAIYYCQQYSNYPTFGSGTKLEIK
Kd [1]: 0.8 nM
Kd [2]: 1 nM

B8: anti-human FCRL1 mouse monoclonal antibody DK1142 (antibody, V domains shown)
VH: QVQLQQSGPELVKPGASVRISCKASGYTFTSYNIHWVKQRPGQGLEWIGWIYPGDGNPKYNEKFKGKTTLTADKSSSTAYMQLSSLTSEDSAVYFCARRIHYYDYFDYWGQGTTLTVSS
VL: DVLMTQTPLSLPVSLGDQASISCRSSQSIVHSNGNTYLEWYLQKPGQSPKLLIYKVSNRFSGVPDRFSGSGSGTDFTLKISRVEADDLGVYYCFQGSHVPWTFGGGTKLEIK
Kd [1]: 1.1 nM
Kd [2]: 1.4 nM

B10: anti-human FCRL1 mouse monoclonal antibody DK1166 (antibody, V domains shown)
VH: B8 VH with P58T, Y103F, V117L
VL: B8 VL with A19V, S26G, S28T, K79R, D86E
Kd [1]: 1 nM
Kd [2]: 1.5 nM

B11: DK1142 humanized antibody DK1142 F22, human IgG1 (S239C) (antibody)
heavy: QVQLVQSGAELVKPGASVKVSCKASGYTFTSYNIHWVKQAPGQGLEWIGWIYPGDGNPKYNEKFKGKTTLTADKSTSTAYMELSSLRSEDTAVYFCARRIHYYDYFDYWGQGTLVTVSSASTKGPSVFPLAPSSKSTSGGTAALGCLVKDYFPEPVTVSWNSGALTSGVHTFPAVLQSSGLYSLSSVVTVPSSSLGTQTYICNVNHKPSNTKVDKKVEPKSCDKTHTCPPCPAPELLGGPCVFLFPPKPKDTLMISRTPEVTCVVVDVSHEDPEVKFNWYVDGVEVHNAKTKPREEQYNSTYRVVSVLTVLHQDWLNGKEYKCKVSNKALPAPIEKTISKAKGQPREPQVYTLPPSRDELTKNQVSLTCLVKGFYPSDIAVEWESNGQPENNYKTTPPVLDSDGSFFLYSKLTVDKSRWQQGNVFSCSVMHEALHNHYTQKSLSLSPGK
light: DIVMTQSPLSLPVTLGEPASISCRSSQSIVHSNGNTYLEWYLQKPGQSPQLLIYKVSNRFSGVPDRFSGSGSGTDFTLKISRVEAEDVGVYYCFQGSHVPWTFGQGTKVEIK
Kd [7]: 11.1 nM
koff [7]: 0.0428 s⁻¹
kon [7]: 3.85e+06 M⁻¹ s⁻¹

B12: DK1142 humanized antibody DK1142 F24, human IgG1 (S239C) (antibody)
heavy: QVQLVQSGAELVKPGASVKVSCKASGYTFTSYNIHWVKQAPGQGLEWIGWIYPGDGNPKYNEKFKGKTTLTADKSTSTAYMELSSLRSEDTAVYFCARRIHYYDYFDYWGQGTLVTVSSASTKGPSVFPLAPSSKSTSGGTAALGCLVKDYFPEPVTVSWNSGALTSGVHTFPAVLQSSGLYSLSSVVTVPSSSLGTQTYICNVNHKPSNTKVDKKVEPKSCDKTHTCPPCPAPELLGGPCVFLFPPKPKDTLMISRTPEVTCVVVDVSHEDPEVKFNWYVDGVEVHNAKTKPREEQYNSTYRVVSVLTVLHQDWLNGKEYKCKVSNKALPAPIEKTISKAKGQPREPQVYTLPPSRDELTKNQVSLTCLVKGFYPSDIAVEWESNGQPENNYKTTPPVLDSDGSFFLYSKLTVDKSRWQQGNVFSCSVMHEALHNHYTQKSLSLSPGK
light: B11 light with I2V, Q50K, V56I
Kd [7]: 12.2 nM
koff [7]: 0.0274 s⁻¹
kon [7]: 2.24e+06 M⁻¹ s⁻¹

The remaining lines, values ahead:

Kd [1]: 0.8 nM
Kd [2]: 1.6 nM
B1: anti-human FCRL1 mouse monoclonal antibody DK1141 (antibody, V domains shown)
VH: EVRLVESGGRLVQPKGSLRLSCAVSGFTFNTYAMYWIRQAPGKGLEWVARIRSKTNNFATYYADSVKDRFTISRDDSQSMLYLQMNNLKTEDTAMYYCVRDNSGSFDYWGQGTTLTVSS
VL: DIVMAQSPSSLAVSVGEKVTMSCKSSQSLLHSSNQKNYLAWYQQKPGQSPNLLIYWASSRESGVPDRFTGSGSGTDFTLTISSVQAEDLATYYCQQYYSYPTFGAGTKLDLK

Kd [3]: 9.15 nM
koff [3]: 0.00259 s⁻¹
kon [3]: 385000 M⁻¹ s⁻¹
B2: DK681 humanized antibody DK681 F12, human IgG1 (S239C) (antibody)
heavy: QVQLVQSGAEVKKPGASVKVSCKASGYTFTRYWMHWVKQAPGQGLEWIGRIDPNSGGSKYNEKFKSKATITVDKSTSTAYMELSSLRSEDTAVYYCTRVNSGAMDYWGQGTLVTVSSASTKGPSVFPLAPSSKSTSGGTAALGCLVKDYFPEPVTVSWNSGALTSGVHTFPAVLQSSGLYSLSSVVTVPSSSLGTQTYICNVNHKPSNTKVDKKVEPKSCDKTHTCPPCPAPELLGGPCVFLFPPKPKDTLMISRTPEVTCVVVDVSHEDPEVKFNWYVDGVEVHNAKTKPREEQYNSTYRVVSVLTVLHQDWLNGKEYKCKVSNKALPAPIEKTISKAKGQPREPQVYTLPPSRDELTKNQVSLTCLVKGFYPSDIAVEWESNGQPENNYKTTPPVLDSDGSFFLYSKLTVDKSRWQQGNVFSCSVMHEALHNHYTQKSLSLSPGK
light: B3 light

koff [5]: 0.00105 s⁻¹
kon [5]: 447000 M⁻¹ s⁻¹
Kd [6]: 6.65 nM
B6: DK681 chimeric antibody (chDK681), human IgG1 (S239C) (antibody)
heavy: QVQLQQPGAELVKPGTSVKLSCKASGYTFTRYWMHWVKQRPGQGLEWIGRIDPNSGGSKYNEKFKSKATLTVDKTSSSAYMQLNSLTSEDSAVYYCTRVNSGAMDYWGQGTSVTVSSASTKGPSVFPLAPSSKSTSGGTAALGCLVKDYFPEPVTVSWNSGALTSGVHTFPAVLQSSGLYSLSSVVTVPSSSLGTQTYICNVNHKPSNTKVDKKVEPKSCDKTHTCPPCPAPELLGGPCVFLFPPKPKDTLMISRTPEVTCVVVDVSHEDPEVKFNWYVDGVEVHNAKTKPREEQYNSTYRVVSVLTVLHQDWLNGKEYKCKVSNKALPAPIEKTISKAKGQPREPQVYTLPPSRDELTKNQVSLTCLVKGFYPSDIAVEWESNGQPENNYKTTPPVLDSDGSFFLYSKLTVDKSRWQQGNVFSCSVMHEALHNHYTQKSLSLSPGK
light: B7 VL
notes: also called DK681 F01; not shown: human kappa light chain constant region (pFUSE2-CLIg-hk vector)

Kd [7]: 11.4 nM
koff [7]: 0.0518 s⁻¹
kon [7]: 4.55e+06 M⁻¹ s⁻¹
B9: DK1142 chimeric antibody (chDK1142), human IgG1 (S239C) (antibody)
heavy: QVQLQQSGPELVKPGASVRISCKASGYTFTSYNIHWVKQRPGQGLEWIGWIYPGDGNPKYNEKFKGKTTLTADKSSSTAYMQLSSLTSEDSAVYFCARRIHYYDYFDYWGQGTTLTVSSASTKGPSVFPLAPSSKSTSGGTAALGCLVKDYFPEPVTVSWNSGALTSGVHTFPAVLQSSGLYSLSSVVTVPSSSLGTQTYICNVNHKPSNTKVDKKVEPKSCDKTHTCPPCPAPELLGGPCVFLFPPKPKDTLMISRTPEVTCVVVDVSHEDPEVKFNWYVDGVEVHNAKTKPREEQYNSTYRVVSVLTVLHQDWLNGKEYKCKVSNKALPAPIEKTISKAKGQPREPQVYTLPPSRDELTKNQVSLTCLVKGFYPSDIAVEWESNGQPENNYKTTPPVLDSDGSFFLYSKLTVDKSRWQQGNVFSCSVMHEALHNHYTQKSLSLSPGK
light: B8 VL
notes: also called DK1142 F02; not shown: human kappa light chain constant region (pFUSE2-CLIg-hk vector)

Kd [7]: 12.8 nM
koff [7]: 0.0686 s⁻¹
kon [7]: 5.36e+06 M⁻¹ s⁻¹
B13: DK1142 humanized antibody DK1142 F21, human IgG1 (S239C) (antibody)
heavy: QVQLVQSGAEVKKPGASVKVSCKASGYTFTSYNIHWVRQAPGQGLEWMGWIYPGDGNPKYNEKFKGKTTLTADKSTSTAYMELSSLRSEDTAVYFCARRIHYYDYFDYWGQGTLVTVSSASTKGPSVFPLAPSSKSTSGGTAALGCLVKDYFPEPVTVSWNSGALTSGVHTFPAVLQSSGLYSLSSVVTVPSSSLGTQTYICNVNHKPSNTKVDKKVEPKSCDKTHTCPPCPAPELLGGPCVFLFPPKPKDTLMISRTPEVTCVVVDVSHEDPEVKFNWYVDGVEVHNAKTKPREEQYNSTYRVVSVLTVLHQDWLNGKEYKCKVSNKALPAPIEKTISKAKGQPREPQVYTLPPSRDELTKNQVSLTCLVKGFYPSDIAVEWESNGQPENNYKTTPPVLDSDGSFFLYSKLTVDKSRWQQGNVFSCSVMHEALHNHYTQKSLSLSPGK
light: B11 light
